This assay has as its target FGF-21 receptor on differentiated 3T3-L1 fat cells (mouse). In words: cell-based or functional assay.

Turning to “recombinant human FGF-21 (from Chongqing Fagen Biomedical Inc.) (from UniProt Q9NSA1 29-209) (ligand)”, the Glucose uptake CPM of 3T3-L1 fat cells at 0 nM protein (baseline) is 1880 CPM, the Glucose uptake CPM of 3T3-L1 fat cells at 0.03 nM protein came to 1800 CPM, the Glucose uptake CPM of 3T3-L1 fat cells at 0.15 nM protein is 2110 CPM and the Glucose uptake CPM of 3T3-L1 fat cells at 0.8 nM protein was 2200 CPM. Besides, the Glucose uptake CPM of 3T3-L1 fat cells at 4 nM protein turned out to be 3300 CPM, the Glucose uptake CPM of 3T3-L1 fat cells at 20 nM protein was determined as 5130 CPM and the Glucose uptake CPM of 3T3-L1 fat cells at 100 nM protein worked out at 5320 CPM.

These data come from patent EP2468858B1.
